Test results published in paper PMC12876990, “Targeting secreted PLA2 interactions with EGFR and vimentin to arrest prostate tumour growth” (Cell Death & Disease, 2025).
Square brackets hold non-standard residues; d marks the D form. 2Nal = N[C@@H](Cc1ccc2ccccc2c1)C(=O)O

Target: T1, vimentin coil 2 (purified fragment)
T1 construct: vimentin, coil 2 fragment, purified; PDB 3TRT was used only for docking; also called second coil of vimentin; source: purified
Test: ELISA; competition enzyme immunoassay: vimentin coil 2 coated on the plate (15 µg/mL); hGIIA 100 ng/mL in PBS with 0.1% BSA mixed with c2 0.1-100 µM in DMSO, 37 °C, 2 h; detected with 4A1-alkaline phosphatase
Conditions: both partners purified

IC50: 56.5 µM
B1: c2 (cyclo-((2-Nal)-Leu-Ser-(2-Nal)-Arg)) (peptide)
chain: cyclo([2Nal]LS[2Nal]R)
SMILES: CC(C)C[C@@H]1NC(=O)[C@H](Cc2ccc3ccccc3c2)NC(=O)[C@H](CCCNC(=N)N)NC(=O)[C@H](Cc2ccc3ccccc3c2)NC(=O)[C@H](CO)NC1=O
